Reference: paper PMC11214836, “ILF3 safeguards telomeres from aberrant homologous recombination as a telomeric R-loop reader”

Biological target: T1, ILF3-GFP full-length (UniProt Q12906 1-894)
T1 sequence: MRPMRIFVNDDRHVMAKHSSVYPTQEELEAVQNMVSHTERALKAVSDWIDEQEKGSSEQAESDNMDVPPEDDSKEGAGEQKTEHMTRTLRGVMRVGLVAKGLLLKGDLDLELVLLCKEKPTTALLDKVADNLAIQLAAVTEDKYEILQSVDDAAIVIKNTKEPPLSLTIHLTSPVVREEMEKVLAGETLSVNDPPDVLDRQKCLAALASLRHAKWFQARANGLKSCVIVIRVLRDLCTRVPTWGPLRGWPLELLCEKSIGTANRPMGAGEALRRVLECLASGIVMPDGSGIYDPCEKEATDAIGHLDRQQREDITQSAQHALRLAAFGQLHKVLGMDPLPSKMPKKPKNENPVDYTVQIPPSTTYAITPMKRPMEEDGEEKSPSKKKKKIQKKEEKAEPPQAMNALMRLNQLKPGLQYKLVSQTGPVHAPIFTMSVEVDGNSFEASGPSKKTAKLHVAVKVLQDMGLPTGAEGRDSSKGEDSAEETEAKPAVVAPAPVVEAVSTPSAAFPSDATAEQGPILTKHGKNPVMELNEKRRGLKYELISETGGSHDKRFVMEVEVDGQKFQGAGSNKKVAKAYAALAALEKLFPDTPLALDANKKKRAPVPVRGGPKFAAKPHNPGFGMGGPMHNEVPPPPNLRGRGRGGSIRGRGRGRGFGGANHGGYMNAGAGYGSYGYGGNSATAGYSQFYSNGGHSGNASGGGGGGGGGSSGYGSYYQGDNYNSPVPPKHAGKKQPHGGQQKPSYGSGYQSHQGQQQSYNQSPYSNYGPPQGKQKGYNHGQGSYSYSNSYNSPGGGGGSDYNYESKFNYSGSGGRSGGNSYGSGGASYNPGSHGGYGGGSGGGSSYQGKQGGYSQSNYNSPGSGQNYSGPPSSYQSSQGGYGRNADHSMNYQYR
Test: MST; MST: 50 nM His-ILF3-GFP, oligo 0.4 nM-5 uM, 25 mM Tris-HCl pH 7.5, 100 mM NaCl, room temperature
Conditions: protein: recombinant, tags: His, blunt

B1: mutTERRA RNA:DNA hybrid (UUAGCC) (DNA:RNA)
RNA: AGGGUUAGCCUUAGCCUUAGCC
DNA: GGCTAAGGCTAAGGCTAACCCT
binding result: no binding
